Assay results taken from patent US20130052176, “APTAMER FOR NGF AND USE THEREOF” (SHIONOGI & CO., LTD, published 2013).

Key:
Conditions in all cases: tags: human NGF; chain copies: 2
[1] = biological target: T1, NGF (nerve growth factor) (human, UniProt P01138 P01138:122-241); assay: cell_activity; neurite outgrowth, NGF 0.38 nM; TF-1 IC50 0.104 nM
Description: (§1) The neurite outgrowth inhibitory activity of the aptamer obtained in Example 1 was evaluated by using Neuroscreen-1 cell, which is a subclone of PC-12 cells.
(§2) The cells (2500 cells per well) were cultured for one day in an RPMI-1640 medium containing 2.5% horse serum and 1.25% fetal bovine serum in a 96 well flat-bottom plate coated with collagen type IV. […] Two days later, the cytoplasm and nuclei were stained using Cellomics Neurite Outgrowth Kit (manufactured by Thermo Scientific), and neurite length per cell was measured by Cellomics ArrayScan VTI (manufactured by Thermo Scientific). With the neurite length per cell obtained by the addition of NGF alone as inhibitory activity 0%, and that of the cell obtained by NGF free culture for 2 days as inhibitory activity 100%, the inhibitory activity of the aptamer was calculated from the neurite length per cell obtained by culturing with the addition of NGF and the aptamer in mixture. When the inhibitory activity was 0% or below, ‘0%’ is indicated.

[2] = biological target: T1, NGF (nerve growth factor); assay: cell_activity; neurite outgrowth, NGF 0.38 nM; TF-1 IC50 0.069 nM
Description: as §1, §2

[3] = biological target: T1, NGF (nerve growth factor); assay: cell_activity; neurite outgrowth, NGF 0.38 nM; TF-1 IC50 0.122 nM
Description: as §1, §2

[4] = biological target: T1, NGF (nerve growth factor); assay: cell_activity; neurite outgrowth, NGF 0.38 nM; TF-1 IC50 0.130 nM
Description: as §1, §2

[5] = biological target: T1, NGF (nerve growth factor); assay: cell_activity; neurite outgrowth, NGF 0.38 nM; TF-1 IC50 0.107 nM
Description: as §1, §2

[6] = biological target: T1, NGF (nerve growth factor); assay: cell_activity; neurite outgrowth, NGF 0.38 nM; TF-1 IC50 0.055 nM
Description: as §1, §2

[7] = biological target: T1, NGF (nerve growth factor); assay: cell_activity; neurite outgrowth, NGF 0.38 nM; TF-1 IC50 0.064 nM
Description: as §1, §2

[8] = biological target: T1, NGF (nerve growth factor); assay: cell_activity; neurite outgrowth, NGF 0.38 nM; TF-1 IC50 0.285 nM
Description: as §1, §2

[9] = biological target: T1, NGF (nerve growth factor); assay: cell_activity; neurite outgrowth, NGF 0.38 nM; TF-1 IC50 0.159 nM
Description: as §1, §2

[10] = biological target: T1, NGF (nerve growth factor); assay: cell_activity; neurite outgrowth, NGF 0.38 nM; TF-1 IC50 0.319 nM
Description: as §1, §2

[11] = biological target: T1, NGF (nerve growth factor); assay: cell_activity; neurite outgrowth, NGF 1.1 nM; TF-1 IC50 1.2 nM
Description: as §1, §2

[12] = biological target: T1, NGF (nerve growth factor); assay: cell_activity; neurite outgrowth, NGF 1.1 nM; TF-1 IC50 1.5 nM
Description: as §1, §2

[13] = biological target: T1, NGF (nerve growth factor); assay: cell_activity; neurite outgrowth, NGF 1.1 nM; TF-1 IC50 4.2 nM
Description: as §1, §2

[14] = biological target: T1, NGF (nerve growth factor); assay: cell_activity; neurite outgrowth, NGF 0.38 nM; TF-1 IC50 0.156 nM
Description: as §1, §2

[15] = biological target: T1, NGF (nerve growth factor); assay: cell_activity; neurite outgrowth, NGF 1.1 nM; TF-1 IC50 1.7 nM
Description: as §1, §2

T1 sequence (P01138 122-241, one chain of several): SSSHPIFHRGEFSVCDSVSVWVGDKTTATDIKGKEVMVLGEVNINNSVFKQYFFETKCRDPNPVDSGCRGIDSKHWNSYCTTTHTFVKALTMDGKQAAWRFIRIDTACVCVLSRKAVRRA

B1: aptamer ID 26(19) (ssRNA)
RNA: GGGAGACUCGCCAGAGUUGAAAGAAACCCAAAUAAGUGUGCGCAC
modifications: 5' and 3' idT; 2'-F all pyrimidines; 2'-OMe all purines except ribo g3,g19,a20,a26
- IC50 [1]: < 0.01 nM

B2: aptamer ID 26(48) (ssRNA)
RNA: GGGAGACUCGCCAGAGUUGAAAGAAACCCAAAUAAGUGUGCGCAC
modifications: 5' and 3' idT; 2'-OMe purines except ribo g3,g19,a20,a26; 2'-OMe c7,c11,c12,u17,u18,u33,u37,c45; other pyrimidines 2'-F
- IC50 [2]: 0.053 nM

B3: aptamer ID 26(56) (mixed)
RNA: GGGAGACUCGCCAGAGUUGAAAGAAACCCAAAUAAGUGUGCGCAC
modifications: 5' and 3' idT; 2'-OMe purines except ribo g3,g19,a20,a26; 2'-F c27,c28,c41,c43; dC29,dU39; other pyrimidines 2'-OMe
- IC50 [3]: 0.154 nM

B4: aptamer ID 26(57) (mixed)
RNA: GGGAGACUCGCCAGAGUUGAAAGAAACCCAAAUAAGUGUGCGCAC
modifications: 5' and 3' idT; 2'-OMe purines except ribo g3,g19,a20,a26; 2'-F c27,c28,u39,c43; dC29,dC41; other pyrimidines 2'-OMe
- IC50 [4]: 0.213 nM

B5: aptamer ID 26(58) (mixed)
RNA: GGGAGACUCGCCAGAGUUGAAAGAAACCCAAAUAAGUGUGCGCAC
modifications: 5' and 3' idT; 2'-OMe purines except ribo g3,g19,a20,a26; 2'-F c27,c28,u39,c41; dC29,dC43; other pyrimidines 2'-OMe
- IC50 [5]: 0.143 nM

B6: aptamer ID 26(60) (ssRNA)
RNA: GGGAGACUCGCCAGAGUUGAAAGAAACCCAAAUAAGUGUGCGCAC
modifications: 5' and 3' idT; 2'-OMe purines except ribo g3,g19,a20 and 2'-F a26; 2'-F c27,c28,c29,u39,c41,c43; other pyrimidines 2'-OMe
- IC50 [6]: 0.105 nM

B7: aptamer ID 26(65) (mixed)
RNA: GGGAGACUCGCCAGAGUUGAAAGAAACCCAAAUAAGUGUGCGCAC
modifications: 5' PEG80TS4 via ssH linker; 3' idT; 2'-OMe purines except ribo g3,g19,a20,a26; 2'-F c28,c41,c43; dC27,dC29; other pyrimidines 2'-OMe
- IC50 [7]: 0.091 nM

B8: aptamer ID 26(67) (ssRNA)
RNA: GGGAGACUCGCCAGAGUUGAAAGAAACCCAAAUAAGUGUGCGCAC
modifications: 5' PEG40TS2 via ssH linker; 3' idT; 2'-F all pyrimidines; 2'-OMe purines except ribo g3,g19,a20,a26
- IC50 [8]: 0.153 nM

B9: aptamer ID 26(23) (mixed)
RNA: GGGAGACUCGCCAGAGUUGAAAGAAACCCAAAUAAGUGUGCGCAC
modifications: as 26(19) (5' and 3' idT; 2'-F pyrimidines; 2'-OMe purines except ribo g3,g19,a20,a26) but c9 is dC
- IC50 [9]: 0.229 nM

B10: aptamer ID 26(70) (ssRNA)
RNA: GGGAGACUCGCCAGAGUUGAAAGAAACCCAAAUAAGUGUGCGCAC
modifications: 5' PEG80TS4 via ssH linker; 3' idT; 2'-F all pyrimidines; 2'-OMe purines except ribo g3,g19,a20,a26
- IC50 [10]: 0.126 nM

B11: aptamer ID 57(1) (mixed)
mixed: GGGAUAAAAAUAGAGTUUGATAAACACCUGUAUUAAAACCC
modifications: as ID 57 (5' cholesterol; 3' idT; dT16,dT21; 2'-F other pyrimidines and a37,a38; 2'-OMe purines except ribo a4,a7,g30) plus PS between 15 and 16
- IC50 [11]: < 3 nM

B12: aptamer ID 57(3) (mixed)
mixed: GGGAUAAAAAUAGAGTUUGATAAACACCUGUAUUAAAACCC
modifications: as ID 57 (5' cholesterol; 3' idT; dT16,dT21; 2'-F other pyrimidines and a37,a38; 2'-OMe purines except ribo a4,a7,g30) plus PS between 19 and 20
- IC50 [12]: < 3 nM

B13: aptamer ID 57(4) (mixed)
mixed: GGGAUAAAAAUAGAGTUUGATAAACACCUGUAUUAAAACCC
modifications: as ID 57 (5' cholesterol; 3' idT; dT16,dT21; 2'-F other pyrimidines and a37,a38; 2'-OMe purines except ribo a4,a7,g30) plus PS between 20 and 21
- IC50 [13]: < 3 nM

B14: aptamer ID 26(24) (mixed)
RNA: GGGAGACUCGCCAGAGUUGAAAGAAACCCAAAUAAGUGUGCGCAC
modifications: as 26(19) (5' and 3' idT; 2'-F pyrimidines; 2'-OMe purines except ribo g3,g19,a20,a26) but c11 is dC
- IC50 [14]: 0.226 nM

B15: aptamer ID 57(5) (mixed)
mixed: GGGAUAAAAAUAGAGTUUGATAAACACCUGUAUUAAAACCC
modifications: as ID 57 (5' cholesterol; 3' idT; dT16,dT21; 2'-F other pyrimidines and a37,a38; 2'-OMe purines except ribo a4,a7,g30) plus PS between 21 and 22
- IC50 [15]: < 3 nM
